Data from IntAct's records for PubMed 19270079.

These substances were tested against pcd15_mouse Pcdh15 (UniProt Q99PJ1).
Sequence of pcd15_mouse Pcdh15 (Q99PJ1 whole entry): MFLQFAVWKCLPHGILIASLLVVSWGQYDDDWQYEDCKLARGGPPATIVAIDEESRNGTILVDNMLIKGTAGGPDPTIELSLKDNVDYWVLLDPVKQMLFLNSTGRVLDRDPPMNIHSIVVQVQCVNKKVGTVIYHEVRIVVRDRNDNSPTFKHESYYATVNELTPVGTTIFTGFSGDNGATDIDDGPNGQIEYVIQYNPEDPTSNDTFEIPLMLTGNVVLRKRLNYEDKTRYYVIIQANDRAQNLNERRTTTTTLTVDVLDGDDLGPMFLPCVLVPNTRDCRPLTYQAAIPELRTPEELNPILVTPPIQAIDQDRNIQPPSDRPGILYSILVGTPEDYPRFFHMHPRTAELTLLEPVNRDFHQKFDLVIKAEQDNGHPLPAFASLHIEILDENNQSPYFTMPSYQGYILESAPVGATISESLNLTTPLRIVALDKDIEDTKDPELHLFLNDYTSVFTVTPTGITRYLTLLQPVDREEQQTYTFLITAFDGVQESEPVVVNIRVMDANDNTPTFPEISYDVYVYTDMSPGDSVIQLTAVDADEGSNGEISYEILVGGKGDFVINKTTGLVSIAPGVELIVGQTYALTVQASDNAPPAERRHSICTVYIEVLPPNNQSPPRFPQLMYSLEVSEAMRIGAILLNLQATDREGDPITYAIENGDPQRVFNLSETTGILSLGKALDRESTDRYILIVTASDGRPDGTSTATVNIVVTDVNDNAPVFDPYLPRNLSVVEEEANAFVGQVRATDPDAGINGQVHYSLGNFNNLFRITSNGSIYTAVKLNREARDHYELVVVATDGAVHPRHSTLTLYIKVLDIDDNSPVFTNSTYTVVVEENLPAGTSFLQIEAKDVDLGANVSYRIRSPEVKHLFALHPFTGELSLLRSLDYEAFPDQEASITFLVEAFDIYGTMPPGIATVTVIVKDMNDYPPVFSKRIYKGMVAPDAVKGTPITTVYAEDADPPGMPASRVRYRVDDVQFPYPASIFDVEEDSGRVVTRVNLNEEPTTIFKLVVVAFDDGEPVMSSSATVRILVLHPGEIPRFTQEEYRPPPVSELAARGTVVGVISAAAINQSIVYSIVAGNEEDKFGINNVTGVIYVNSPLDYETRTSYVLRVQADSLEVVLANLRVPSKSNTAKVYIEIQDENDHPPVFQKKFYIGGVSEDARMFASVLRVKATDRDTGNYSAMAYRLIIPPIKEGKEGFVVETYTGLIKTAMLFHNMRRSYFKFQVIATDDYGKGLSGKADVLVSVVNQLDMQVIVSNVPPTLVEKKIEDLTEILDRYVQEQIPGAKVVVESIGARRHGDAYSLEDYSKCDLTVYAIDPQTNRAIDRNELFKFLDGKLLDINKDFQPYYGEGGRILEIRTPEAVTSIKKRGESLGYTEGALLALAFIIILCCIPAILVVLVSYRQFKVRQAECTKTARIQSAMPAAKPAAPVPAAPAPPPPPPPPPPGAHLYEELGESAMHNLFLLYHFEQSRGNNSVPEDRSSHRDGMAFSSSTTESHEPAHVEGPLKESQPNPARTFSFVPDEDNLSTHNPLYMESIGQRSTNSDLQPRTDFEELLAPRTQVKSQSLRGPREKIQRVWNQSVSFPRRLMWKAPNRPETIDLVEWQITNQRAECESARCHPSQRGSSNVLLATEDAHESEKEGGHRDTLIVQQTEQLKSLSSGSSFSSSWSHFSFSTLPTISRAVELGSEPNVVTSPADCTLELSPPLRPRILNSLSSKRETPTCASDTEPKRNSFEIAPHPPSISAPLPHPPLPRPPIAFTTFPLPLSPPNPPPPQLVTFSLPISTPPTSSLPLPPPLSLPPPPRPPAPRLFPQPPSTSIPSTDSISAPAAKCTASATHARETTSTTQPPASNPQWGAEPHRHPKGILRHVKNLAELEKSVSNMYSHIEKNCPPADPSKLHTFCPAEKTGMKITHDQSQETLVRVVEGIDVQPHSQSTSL

Effect of a mutation on the interaction, decreasing interaction:
Cadherin-23 (Mus musculus), Q99PF4-1 D124G
Cadherin-23 (Mus musculus), Q99PF4-1 E737V
Cadherin-23 (Mus musculus), Q99PF4-1 R1060W
